Experimental data published in US20210047432A1 (DIACCURATE, published 2021).
Substitutions are numbered along the chain they refer to. Names may count otherwise. Each block holds one binder with its values, some of them ahead of it.

Tests used:
human FcγRI [1] = biological target: T1, human FcγRI (human, UniProt P12314 16-374); assay: flow cytometry, monomeric IgG (100 ng/mL) on CHO cells expressing the receptor
T1 construct: whole, on cells; also called hFcγRI
Method: (§1) Monomeric IgG binding was tested by incubating the #2B, #2B1 and #2B2 antibodies (100 ng/mL) with 1×10⁵ CHO cells stably expressing human FcγRs for 30 min on ice. The cells were then washed, detached, fixed, and analyzed by flow cytometry (FACSCalibur; BD Biosciences).
(§2) The binding of monomeric #2B, #2B1 and #2B2 to human FcγRs was tested by flow cytometry by incubating the mAbs with CHO cells stably expressing human FcγRI, FcγRIIA (H131), FcγRIIA(R131), FcγRIIB, FcγRIIIA(F176), FcγRIIIA(V176), FcγRIIIB(NA1), FcγRIIIB(NA2), and FcγRIIIB(SH), (REF P. Bruhns). As presented in FIG. 9, #2B is binding to hFcγRI and hFcγRIIIA(V176) only, whereas no monomeric binding of #2B1 and #2B2 to all tested hFcγRs was observed. Antibody-antigen immune complex was tested by first incubating the mAb with the antigen and then, incubating the immune complexes formed with CHO cells stably expressing human FcγRs. The immune complexe of #2B is binding to all tested hFcγRs, except hFcγRIIB (FIG. 10). Weak binding is observed for immune complex of #2B1 to hFcγRIIIA(V176) (data not shown), whereas no immune complex binding of #2B2 to any tested hFcγRs (data not shown).

human FcγRIIIA(V176) [2] = biological target: T2, human FcγRIIIA(V176) (human, UniProt P08637 17-254); assay: as above
T2 construct: whole, on cells; also called hFcγRIIIA(V176)
Method: as §1, §2

[3] = biological target: T3, recombinant human pro-sPLA2-GIB (human, UniProt P04054 16-148); assay: SPR (BIAcore 2000), antibody captured, antigen in solution
T3 construct: also called pro-sPLA2-IB; proPLA2-GIB
Method: (§3) The affinity constants (KD) of the pro-sPLA2-GIB and sPLA2-GIB binding to the #2B, #2B1 and #2B2 antibodies were determined by surface kinetics on a real-time biosensor surface plasmon resonance assay (BIAcore™). More specifically, the affinity of the antibodies for human pro-sPLA2-IB and sPLA2-IB was measured using a BIAcore® 2000. The antibody was captured on an anti-mouse IgG surface and exposed to various concentrations of recombinant pro-sPLA2-IB and sPLA2-IB protein. Kinetic analysis using BIAevaluation™ software was performed to obtain the association and dissociation rate constants.
as §3, with “to” for “to the #2B,”, “#2B2” for “#2B2 antibodies”, “(BIAcore™).” for “(BIAcore™). More specifically, the affinity of the antibodies for human pro-sPLA2-IB and sPLA2-IB was measured using a BIAcore® 2000.”, “constants (Table 7).” for “constants.”

[4] = biological target: T4, recombinant human sPLA2-GIB (mature secreted group IB pancreatic phospholipase A2) (human, UniProt P04054 23-148); assay: as above
T4 construct: also called sPLA2-IB; PLA2-GIB mature form
Method: as §3
as §3, with “to” for “to the #2B,”, “#2B2” for “#2B2 antibodies”, “(BIAcore™).” for “(BIAcore™). More specifically, the affinity of the antibodies for human pro-sPLA2-IB and sPLA2-IB was measured using a BIAcore® 2000.”, “constants (Table 7).” for “constants.”

[5] = biological target: T3, recombinant human pro-sPLA2-GIB; assay: competitive ELISA: constant antibody premixed with dilutions of soluble antigen, free antibody caught on antigen-coated plate
Method: (§4) Binding affinities of the humanized antibodies to pro-sPLA2-GIB and sPLA2-GIB were measured by plate-based competition immunoassay. For the competition ELISA, briefly, constant amounts of antibody at different levels were premixed with serial dilutions of antigen protein, human sPLA2-GIB or pro-sPLA2-GIB, ranging from 0 to 10 μg/ml, and incubated for two hours at room temperature to reach pseudo-binding equilibrium between the antibody and antigen. These solutions were then transferred to 96-well sPLA2-GIB or pro-sPLA2-GIB pre-coated plates to allow the free-antibody in the mixtures to bind to plate-coated sPLA2-GIB or pro-sPLA2-GIB. The plates were typically coated with 30 to 100 ng of human sPLA2-GIB or pro-sPLA2-GIB protein in PBS solution overnight at 4° C. followed by BSA nonspecific blocking. After washing off excess antibody in solution, plate-bound antibodies were detected with an HRP-conjugated goat anti-mouse IgG or IgA polyclonal antibody reagent and developed using colorimetric substrate. The dependency of the signals on the concentrations of antigen in solution was analyzed with a 4-parameter fit analysis using Prism™ software (Graph Pad) and reported as IC50.
(§5) The respective binding affinities of the humanized antibodies to human pro-sPLA2-GIB and human sPLA2-GIB were measured by plate-based competition immunoassay. Briefly, constant amounts of antibody at different levels were premixed with serial dilutions of antigen proteins to reach pseudo-binding equilibrium between the antibody and antigen. These solutions were then transferred to antigen pre-coated plates to allow the free-antibody in the mixtures to bind to plate-coated sPLA2-GIB or pro-sPLA2-GIB. Plate-bound antibodies were detected with an HRP-conjugated polyclonal antibody. Data were fitted with a 4PL logistic non-linear regression model and the relative IC50 values were estimated from the model (Table 4).

[6] = biological target: T4, recombinant human sPLA2-GIB (mature …); assay: as above
Method: as §4, §5

[7] = biological target: T4, recombinant human sPLA2-GIB (mature …); assay: cell-based or functional assay
human FcγRI [8] = biological target: T1, human FcγRI; assay: flow cytometry, monomeric IgG on CHO cells expressing the receptor
Method: as §1, §2

human FcγRIIIB(NA2) = biological target: T5, human FcγRIIIB(NA2) (human, UniProt O75015 17-200); assay: as above
T5 construct: whole, on cells
Method: as §1, §2

human FcγRIIIB(NA1) = biological target: T6, human FcγRIIIB(NA1) (human, UniProt O75015 17-200); assay: as above
T6 construct: whole, on cells
Method: as §1, §2

human FcγRIIA (H131) = biological target: T7, human FcγRIIA (H131) (human, UniProt P12318 34-317); assay: as above
T7 construct: whole, on cells; Allelic variant with His at 131 (mature numbering as printed)
T7 sequence (looked up): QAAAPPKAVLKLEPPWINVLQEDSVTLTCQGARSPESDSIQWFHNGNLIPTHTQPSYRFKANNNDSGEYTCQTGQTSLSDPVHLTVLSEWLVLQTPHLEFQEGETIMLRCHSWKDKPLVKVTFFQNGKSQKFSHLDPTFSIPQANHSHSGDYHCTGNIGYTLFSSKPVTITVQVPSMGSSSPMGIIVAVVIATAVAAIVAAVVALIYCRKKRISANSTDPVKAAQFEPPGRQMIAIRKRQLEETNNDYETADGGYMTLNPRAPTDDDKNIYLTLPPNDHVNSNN
Method: as §1, §2

human FcγRIIIB(SH) = biological target: T8, human FcγRIIIB(SH) (human, UniProt O75015 17-200); assay: as above
T8 construct: whole, on cells
Method: as §1, §2

human FcγRIIA(R131) = biological target: T9, human FcγRIIA(R131) (human, UniProt P12318 34-317); assay: as above
T9 construct: whole, on cells; Allelic variant with Arg at 131 (so in the source)
T9 sequence (looked up): T7 sequence (looked up) with H134R
Method: as §1, §2

human FcγRIIIA(F176) = biological target: T10, human FcγRIIIA(F176) (human, UniProt P08637 17-254); assay: as above
T10 construct: whole, on cells
Method: as §1, §2

human FcγRIIB = biological target: T11, human FcγRIIB (human, UniProt P31994 43-310); assay: as above
T11 construct: whole, on cells; also called hFcγRIIB
T11 sequence (looked up): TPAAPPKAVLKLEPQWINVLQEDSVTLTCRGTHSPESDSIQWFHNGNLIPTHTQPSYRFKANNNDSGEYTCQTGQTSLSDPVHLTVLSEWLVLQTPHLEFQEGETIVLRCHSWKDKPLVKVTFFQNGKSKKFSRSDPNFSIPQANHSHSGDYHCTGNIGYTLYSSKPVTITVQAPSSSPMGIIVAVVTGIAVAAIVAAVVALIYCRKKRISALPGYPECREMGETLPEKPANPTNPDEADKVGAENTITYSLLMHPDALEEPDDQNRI
Method: as §1, §2

human FcγRIIIA(V176) [9] = biological target: T2, human FcγRIIIA(V176); assay: as above
Method: as §1, §2

T4 sequence (P04054 23-148): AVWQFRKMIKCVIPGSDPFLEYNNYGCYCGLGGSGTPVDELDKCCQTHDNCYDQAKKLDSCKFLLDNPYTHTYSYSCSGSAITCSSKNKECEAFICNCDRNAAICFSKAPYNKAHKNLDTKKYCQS
T3 sequence (P04054 16-148): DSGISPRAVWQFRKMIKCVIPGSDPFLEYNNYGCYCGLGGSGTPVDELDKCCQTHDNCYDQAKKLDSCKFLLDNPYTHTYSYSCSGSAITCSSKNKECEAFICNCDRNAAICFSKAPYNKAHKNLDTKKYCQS
T1 sequence (P12314 16-374): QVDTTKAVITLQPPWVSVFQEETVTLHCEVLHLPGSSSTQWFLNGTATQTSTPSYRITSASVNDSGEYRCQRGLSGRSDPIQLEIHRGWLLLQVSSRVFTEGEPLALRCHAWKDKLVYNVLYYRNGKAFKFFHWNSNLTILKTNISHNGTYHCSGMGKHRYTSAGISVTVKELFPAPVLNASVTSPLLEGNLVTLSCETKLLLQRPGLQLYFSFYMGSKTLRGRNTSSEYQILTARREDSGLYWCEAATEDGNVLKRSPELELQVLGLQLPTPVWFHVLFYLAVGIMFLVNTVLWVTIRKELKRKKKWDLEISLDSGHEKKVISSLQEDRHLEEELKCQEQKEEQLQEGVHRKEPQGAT
T2 sequence (P08637 17-254 F176V limits assumed): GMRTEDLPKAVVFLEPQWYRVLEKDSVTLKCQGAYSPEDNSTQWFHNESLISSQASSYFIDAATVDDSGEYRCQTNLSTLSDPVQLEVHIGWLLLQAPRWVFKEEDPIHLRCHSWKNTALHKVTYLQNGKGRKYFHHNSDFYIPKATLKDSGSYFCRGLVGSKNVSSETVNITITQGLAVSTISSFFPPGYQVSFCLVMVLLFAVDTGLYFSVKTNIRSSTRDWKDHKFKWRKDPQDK
T6 sequence (O75015 other isoform, or with tags, fused parts or gaps): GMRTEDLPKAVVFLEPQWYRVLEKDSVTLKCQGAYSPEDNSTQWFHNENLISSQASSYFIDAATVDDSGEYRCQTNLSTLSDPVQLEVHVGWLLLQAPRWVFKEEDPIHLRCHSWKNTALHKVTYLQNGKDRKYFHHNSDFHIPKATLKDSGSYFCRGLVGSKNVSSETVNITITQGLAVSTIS
T5 sequence (O75015 17-200 N65S): as the sequence (O75015 other isoform, or with tags, fused parts or gaps) above, with R20S, N49S, D66N, V90I counted along it
T10 sequence (P08637 17-254): as the sequence (P08637 17-254 F176V limits assumed) above, with V160F counted along it
T8 sequence (O75015 17-200 N65S/A78D): as the sequence (O75015 other isoform, or with tags, fused parts or gaps) above, with R20S, N49S, A62D, D66N, V90I counted along it

binding result (human FcγRI [1]): binds
binding result (human FcγRIIIA(V176) [2]): binds
Kd [3]: 785 nM
koff [3]: 0.142 s⁻¹
kon [3]: 176000 M⁻¹ s⁻¹
t½ [3]: 0.08 min
Kd [4]: 0.786 nM
koff [4]: 0.00225 s⁻¹
kon [4]: 2.89e+06 M⁻¹ s⁻¹
t½ [4]: 5.1 min
IC50 [5]: 341 nM
IC50 [6]: 2.3 nM
EC50 for the restoration of the sPLA2-IB effect on IL-7 induced phosphoSTAT5 nuclear translocation in human CD4 T cells (75 nM sPLA2-GIB) [7]: 3.7 ng/mL
B1: humanized antibody #2B (antibody, human IgG1, kappa)
heavy: not shown
light: EIVMTQSPATLSVSPGERATLSCKASQDVSTAVAWYQQKPGQAPRLLIYWASTRHTGIPARFSGSRSGTEYTLTISSLQSEDFAVYYCQQDYSTPPTFGGGTKVEIKRTVAAPSVFIFPPSDEQLKSGTASVVCLLNNFYPREAKVQWKVDNALQSGNSQESVTEQDSKDSTYSLSSTLTLSKADYEKHKVYACEVTHQGLSSPVTKSFNRGEC
notes: Humanized 14G9, IGHV1-46*01 version B heavy and IGKV3-15*01 version B light; also called Ab #2B; mAb #2B; copies: 2 + 2

Kd [3]: 880 nM
koff [3]: 0.146 s⁻¹
kon [3]: 164000 M⁻¹ s⁻¹
t½ [3]: 0.079 min
Kd [4]: 0.796 nM
koff [4]: 0.00247 s⁻¹
kon [4]: 3.02e+06 M⁻¹ s⁻¹
t½ [4]: 4.7 min
binding result (human FcγRI [8]): no binding (tested: 100 ng/mL)
binding result (human FcγRIIIB(NA2)): no binding (tested: 100 ng/mL)
binding result (human FcγRIIIB(NA1)): no binding (tested: 100 ng/mL)
binding result (human FcγRIIA (H131)): no binding (tested: 100 ng/mL)
binding result (human FcγRIIIB(SH)): no binding (tested: 100 ng/mL)
binding result (human FcγRIIA(R131)): no binding (tested: 100 ng/mL)
binding result (human FcγRIIIA(F176)): no binding (tested: 100 ng/mL)
binding result (human FcγRIIB): no binding (tested: 100 ng/mL)
binding result (human FcγRIIIA(V176) [9]): no binding (tested: 100 ng/mL)
B2: humanized antibody #2B2 (mutations L234A, L235E and P331S) (antibody, human IgG1, kappa)
heavy: QVQLVQSGAEVKKPGASVKVSCKASGYTFTNYWIHWVRQAPGQGLEWIGNIDPSDTRTHYNQKFKDRATLTVDKSTSTAYMELSSLRSEDTAVYYCARQTLYYEALDYWGQGTLVTVSSASTKGPSVFPLAPSSKSTSGGTAALGCLVKDYFPEPVTVSWNSGALTSGVHTFPAVLQSSGLYSLSSVVTVPSSSLGTQTYICNVNHKPSNTKVDKRVEPKSCDKTHTCPPCPAPEAEGGPSVFLFPPKPKDTLMISRTPEVTCVVVDVSHEDPEVKFNWYVDGVEVHNAKTKPREEQYNSTYRVVSVLTVLHQDWLNGKEYKCKVSNKALPASIEKTISKAKGQPREPQVYTLPPSREEMTKNQVSLTCLVKGFYPSDIAVEWESNGQPENNYKTTPPVLDSDGSFFLYSKLTVDKSRWQQGNVFSCSVMHEALHNHYTQKSLSLSPGK
light: B1 light
notes: #2B with L234A, L235E and P331S in the heavy chain constant region; also called Ab #2B2; #2B2 humanized mAb; copies: 2 + 2
